Results taken from the supplement of paper PMC11246515.
± gives the standard deviation of the averaged measurements.

Experiment: total protein half-life in vivo (active degradation + dilution); higher = more stable protein
[1] = E. coli NCM3722 delta-clpP delta-lon delta-hslV, growth: N-lim chemostat, doubling time 6 h
[2] = E. coli NCM3722 delta-clpP, growth: N-lim chemostat, doubling time 6 h
[3] = E. coli NCM3722 delta-hslV, growth: N-lim chemostat, doubling time 6 h
[4] = E. coli NCM3722 delta-lon, growth: N-lim chemostat, doubling time 6 h
[5] = E. coli NCM3722 delta-smpB, growth: N-lim chemostat, doubling time 6 h
[6] = wild type E. coli NCM3722, growth: C-lim chemostat, doubling time 3 h
[7] = wild type E. coli NCM3722, growth: C-lim chemostat, doubling time 6 h
[8] = wild type E. coli NCM3722, growth: C-lim chemostat, doubling time 12 h
[9] = wild type E. coli NCM3722, growth: N-lim chemostat, doubling time 6 h
[10] = wild type E. coli NCM3722, growth: N-lim chemostat, doubling time 12 h
[11] = wild type E. coli NCM3722, growth: P-lim chemostat, doubling time 6 h
[12] = wild type E. coli NCM3722, growth: P-lim chemostat, doubling time 12 h

Sequence | total protein half-life in vivo [1] [h] | total protein half-life in vivo [2] [h] | total protein half-life in vivo [3] [h] | total protein half-life in vivo [4] [h] | total protein half-life in vivo [5] [h] | total protein half-life in vivo [6] [h] | total protein half-life in vivo [7] [h] | total protein half-life in vivo [8] [h] | total protein half-life in vivo [9] [h] | total protein half-life in vivo [10] [h] | total protein half-life in vivo [11] [h] | total protein half-life in vivo [12] [h]
MLKVEMLSTGDEVLHGQIVDTNAAWLADFFFHQGLPLSRRNTVGDNLDDLVTILRERSQHADVLIVNGGLGPTSDDLSALAAATAKGEGLVLHEAWLKEMERYFHERGRVMAPSNRKQAELPASAEFINNPVGTACGFAVQLNRCLMFFTPGVPSEFKVMVEHEILPRLRERFSLPQPPVCLRLTTFGRSESDLAQSLDTLQLPPGVTMGYRSSMPIIELKLTGPASEQQAMEKLWLDVKRVAGQSVIFEGTEGLPAQISRELQNRQFSLTLSEQFTGGLLALQLSRAGAPLLACEVVPSQEETLAQTAHWITERRANHFAGLALAVSGFENEHLNFALATPDGTFALRVRFSTTRYSLAIRQEVCAMMALNMLRRWLNGQDIASEHGWIEVVESMTLSV | 4.98 ± 0.18 | 4.36 ± 0.044 | 4.01 ± 0.17 | 4.79 ± 0.35 | 4.32 ± 0.093 | 3.098 ± 0.027 | 5.27 ± 0.91 | 9.19 ± 2.1 | 3.94 ± 0.2 | 6.9 ± 0.57 | 6.25 ± 0.51 | 11.2 ± 0.81
MLKVLLLFVLLIAGIVVGPMIAGHQGYVLIQTDNYNIETSVTGLAIILILAMVVLFAIEWLLRRIFRTGAHTRGWFVGRKRRRARKQTEQALLKLAEGDYQQVEKLMAKNADHAEQPVVNYLLAAEAAQQRGDEARANQHLERAAELAGNDTIPVEITRVRLQLARNENHAARHGVDKLLEVTPRHPEVLRLAEQAYIRTGAWSSLLDIIPSMAKAHVGDEEHRAMLEQQAWIGLMDQARADNGSEGLRNWWKNQSRKTRHQVALQVAMAEHLIECDDHDTAQQIIIDGLKRQYDDRLLLPIPRLKTNNPEQLEKVLRQQIKNVGDRPLLWSTLGQSLMKHGEWQEASLAFRAALKQRPDAYDYAWLADALDRLHKPEEAAAMRRDGLMLTLQNNPPQ [P0ACB7] | 5.91 ± 0.1 | 6.4161 ± 0.0029 | – | 6.1592 ± 0.004 | 5.98 ± 0.073 | 3.13 ± 0.12 | 6.13 ± 0.2 | 13.2 ± 0.85 | 6.64 ± 0.65 | 12.6 ± 0.5 | 6.1 ± 0.41 | 12.6 ± 0.95
MLLEQGWLVGARRVPSPHYDCRPDDETPTLLVVHNISLPPGEFGGPWIDALFTGTIDPQAHPFFAEIAHLRVSAHCLIRRDGEIVQYVPFDKRAWHAGVSQYQGRERCNDFSIGIELEGTDTLAYTDAQYQQLAAVTRALIDCYPDIAKNMTGHCDIAPDRKTDPGPAFDWARFRVLVSKETT | 5.19 ± 0.54 | 3.72 | 3.07 ± 0.013 | 3.75 ± 0.89 | 2.96 ± 0.27 | 3.18 ± 0.31 | 4.11 ± 0.3 | 7.89 ± 1.5 | 2.88 ± 0.77 | 5.25 ± 0.51 | 4.46 ± 0.12 | 9.44 ± 0.099
